Test: label from the status in PepcDB records

| Sequence | protein production |
| --- | --- |
| MSNHEEKKQHVALSSVAASLLLTAMKLVVGLMTGSIGILSEAAHSAIDFGAAALTWFAVRISDKPADKKHHYGHTKIESVSALIETGLLILTSVWIIYEAVTRLLSGTTEIEVTWYAIAVIIISIIVDISRASALKKVAKETKSQALEADALHFTSDIVSSAVVLAGLGFVALGMHWADAVAGIFVAVLVGKAAWELGRKTIDVLIDTAPEGLSEQIEEIVVNAPGVIGINKMRIKPAGGPFVFIDLTISVSRTLPQEKVVAICAGVEQRLKAALPDSDITVNARPVVLDSETVTERIHTIGLNHGLHAHNILTSLSGDHKQITFDVEVDSRLTIRQAHDAVTELENELHREFNEEIDLCIHLDPINSEERNVQPADPENEARITALIRQAASTIPGILNVHALKIHVLSYNKLCITLHCGFDDNTVLADVHPLTSRLECLIYRDIPETSRIIVHAEPVNAGD | failed |
| MSNCWKNVLVKPACTLLDALEIINDEALRVVLVVDESDSLLGVVTDGDIRRGLLRNLPLTADIAQVMNTTPYTAAIDTPRDELIAIMESNDILSIPLLDNGKVVGLETLHHALSTPVYENPVFIMAGGFGTRLRPLTDHCPKPMLKIGDKPILETVIRNFIKAGFINFYISTHYMPELIHQHFGDGSTLGVKITYVHEQSPLGTGGALGLLPKELPKDLPLIMMNGDVLTKVDFQRLLEFHTEHDADATMCVREYDYQIPYGVIKGEGNRITSMVEKPIQRFFVNAGIYVVSPVVIQSVPENHHIDMPTLLEQHMNKRNNVLMFPIHEYWLDIGRMDDFNRAQTDIYTLGL | failed |
| MNIFKKIKNLSAEFKQNWFQYLILFTSISILNQFVFIPLFRYITTFVLQAGAIPFISYSNLVIILSEHPFVVFFLLIELALLLFVIYSQFALIILFIKNNFALKASISEFGQCLRHFRLGSLLLLAIYFLLVIPFANVVFRTPLLAKIKIPQFIIDYMTRSGILLAILIIFYLVIFVLAFRFLLTLPIMVIYKTTTREAMKKSAFLMKKNWRKVIGFFVPLGILAIVIMAINVGGAYLLQLIWDTFPGKFALIMATINLTLFQIISEVFLIWVSAVSLYFLVKLVTKNNNEIKEKVTNNKIILITIISIWSLAITGNIIENVFYLAGLDDHVPVTISHRGVNDKNGVQNTIESLKKTAKLKPDYVEIDVHETKDNQFVIMHDENLKKLTGKDKRPKELTLNQLTKLIAKEDGYKGKVVSLDQYMQAAQKLKQKLLIEIKTTPNDSNEFLVKFNKKYGHEILKNHYQLQSLDYRVVTKMQQLNPKIETLYIQPYNLIYPQSVADGYSMEYSTLSSDFIWQAHLQNHVVYAWTVNNKSEMKKMMYEHVDGIITDNISMLNTAIKEFQSRQSYANRILNYMMAFPILD | failed |
| MWTYSEYIIFFGIYSFIGWVLETIFASVNDKKIVNRGFLTGFFCPIYGFGAILTVQCSRMVGLSFKNPIISLISSVIFSIFLVTFLEYVTGFILEAIFNCKWWDYSNDAANIHGYICLKYSLLWGMLAFLLVQTIHPLISKMVFNISATTKEKVSIFLLVYFMIDTIKSVIDALNLRQAIMEYSNFSINKYRERILKYKRLIIAFPRLIILNRDIRRIVNDRFYKIKLEIKSKIQELF | failed |
| MEKRQDNNEIERRILKYEQYVKEHPKKAYGYYCLGRLHMMDGKYKLAEEYFKKSLAVDGNYTFSIIGLIEACVFRRKFLKAVYLFSKNRQKIIDKYIYRVKLVRGVSSFYSKSGFFRTEAKDFLSQLSLKNSIRSIKKLVDSEANNIVLKLILCMYYLNFGEKSFYIIQLFKTCIYWDGLEDSFRWALIRRLSEFGEKLYYDANIARKFATVPDASCTDEYVDLIFSSALDREKGGRMADIYRTAEKYNKNISPRLIWRYVKWSNENSFYDPSVYDCCKKLVDMGWMDSVVADTMLKFRERNAVKLGDETERALRLFGYMD | failed |
| MSNWNLDNFDNLHSSLAESAYNSRPNSFPELFETDSVTEVKFSQPSEDNKGQITQGGTNLPNDGIVYLQPDKSLKSIDENVKVLIPDVNGGYHTEHYVTHSYQKGVLTDDKAGFNAYYLSDTEKIDSTTKHTYLAIRGSDGIGLDTLNDWVSNNAMFAVSNKYIPQAKLANKAMKEKIAELKGKAPGAIIDVTGHSLGTIVSSQAVVNLSYAELENVGQVVLFDGPDVSRSLEKMEGISAKKIQEAGKHVTYYVNPFDIVSMLNREKP | failed |
| MPSIVKGIIPPVLTPMKSDRSIDFEALERLVEHLIAGGVDGLFALGSSGEVAFLSDEDRATVIREIVRIAAGRVPVYAGVIDMQVNRMLGHIKAAEEAGVD | not failed |
| MSLYKQLLIAICLFVLIIFSGSFFVSLENSREQYNNQLHSHAQDAATALGLSLTPNIDDPAMVELMVSSIFDSGYFSSIRVRDLKTGNVTLERTASPDIPDVPLWFVQLVDLQPGAGEAIVMRGWEQAAKVEVVSHPMFAVTRLWRSSTATFLWLLGCGTLGVLIGALFLRRQLRPLDYIVDQSLAITRREFLSQPDLPNTPEFRRVAQAMNLMVSKLKTLFEEEAERSERLRQEAYQDPQTGLNNRRAFDMQFNDKLADEETAPGFLIMIRVQDLAGMNQRLGGQRTDALLASVGHILRKTQKQHTNTESLLARIRGGEFALFCPGLVDKEVYALIGELTRNIETLHLTGETDVSPVAQFGMVPFRPGDTAQSLFIQGDQALTRAESDTDTTAPYEIPLAGAEQVETDRHMWFNLLDPILEQERLQLFLQPVVACDDPSQVLHHKVLARIQDEQGNSIAAGRFLPWIQRFGWDTRLDQTMLREVLDYLRQHDGNLALSLSGTTVLNLHLLADLLAPLKHQPEVARRLILELDENQLPDSAQLETLIKLLNEHGCALGLQHFGGRFNMIGNLSQWGLAYLKVDGSYIRNIDQEGDKQMFIEALYRATNSIALPLIAERVETAGELKVLQEMGLQGAMGRLLGEPMPAVRA | failed |
| AKGKNLIIVQLESFQRNLTNIKIDGQSITPTLDSLQNETMYSNKFFQTVSKSNTADAEWSVYTSTFPSGYYTNTQTYGDRVIPSMPRLLGKNDYTTSTFHTNDASFYNRDEFYPAVGFDKFYDRKFFGDEDVIGFSPSDEVLYNKAFPILEKQYKNNQKFYAQLISVSSHMPFNIPEEKQEINLPSDLKDTELGNYFEAVHYADKQLGAFIQKLKDSGIWEDSVVVFYGDHHIIKTDQLPEEQKKYVNRSTELKADPADDYRIPFFLHYPGMKNPGEIKNVGGEIDIMPTVMNLLGINTGNQIMFGTDILNSTNNYVPERYTMPEGSYFTDSYMYQP | failed |
| MQIRLAFPNEIDQIMLLIEEARAEIAKTGSDQWQKEDGYPNRNDIIDDILNGYAWVGIEDGMLATYAAVIDGHEEVYDAIYEGKWLHDNHRYLTFHRIAISNQFRGRGLAQTFLQGLIEGHKGPDFRCDTHEKNVTMQHILNKLGYQYCGKVPLDGVRLAYQKIKEKGETSIYREIDERNPM | not failed |
| MSLTLRVLAPDQNVFDGSADEVILPSTTGQLGILPGHISLLTAIDVGVLRVRANGGWNSIALMGGFAEVDADEVTVLVNQAELGSTIDGNTAEADFQKATTVVDGLEGQPASPEKVKAQQQLNMARARMQASKSAD | failed |
| MKAALLDQVARVGKALANGRRLQILDLLAQGERAVEAIATATGMNLTTASANLQALKSGGLVEARREGTRQYYRIAGEDVARLFALVQVVADEHLADVAVLEHHHHHH | failed |
| MQPFYIKKGRGSVIYSSVRKDLPPFHLFQMGKYSVVEDFSCLNNAVGDIVIGDYCRIGLGNTVIGPIRIDNGVNISQNVVLIGLDHNYQDITQGIIEQGITTSPIHIGEHTIIGANVIVLPGITIGKHCFIGAGCVVTQNIPDYCVTVGNPARIIKRYNPQSQTWEKILEHHHHHH | failed |
| MGNIGSPPKFDEYPNGNEEPRRVLRLNVYFDNPVQNKDGAYDDRGGFWAPVDWWHRDAERWATLFAKGMRVAVRGHLERDDWTDGDGEPHTTYKVDARSVGILPYRLDAVHLSPLEHHHHHH | failed |
| MEKSLETVPGLDLSGEDIEMYYQYVRFVDRFLRFNRNYQIEYFKLSYPGDGSSEREVDLLKRWIDTVIQLKVKDLDFFDYSWEWGFDNFQLPSTIYICESLVSLKLSTVTLPSVKSVSLPFLRVLKLGAVKFADHLDLETLISGCTALETLAIRFFDRVQVLQVSSQSLLSFTHVAPKLVFTHAVRKPLAEKDLSIVIDAPRLEYLKLSDHQTSSFIIKNPGSLVAVDIDINLSSGFDSRNMIRDFLVGISSVKNMTISSIILKFYDYRFKMLPTFLEICPNLKSLILKSTEELGIKESSMFSGPQDFLPSLEYVEMKMPLKKGLLLEIRMLVGYFLEKATILKKLTLCLDDYRKRKESLIPRILAIPRISTSCEVVVL | failed |

From a protein production outcome set (Wang et al. 2014)
